Experimental data taken from US20240279284A1 (KOREA ADVANCED INSTITUTE OF SCIENCE AND TECHNOLOGY, published 2024).
Residue numbers refer to the chain shown, from its start. Numbers in names are those of the source.

What was measured:
[1] = target: MCL-1, endogenous, in K562, HCT-116, SW620, MEWO and A375 cancer cells (Homo sapiens (Human)) (UniProt Q07820); assay: cell-based or functional assay
[2] = target: BCL-xL, endogenous, in K562, HCT-116, SW620, MEWO and A375 cancer cells (Homo sapiens (Human)) (UniProt Q07817); assay: cell-based or functional assay
Sequence of BCL-xL, endogenous, in K562, HCT-116, SW620, MEWO and A375 cancer cells (Homo sapiens (Human)) (Q07817 whole entry): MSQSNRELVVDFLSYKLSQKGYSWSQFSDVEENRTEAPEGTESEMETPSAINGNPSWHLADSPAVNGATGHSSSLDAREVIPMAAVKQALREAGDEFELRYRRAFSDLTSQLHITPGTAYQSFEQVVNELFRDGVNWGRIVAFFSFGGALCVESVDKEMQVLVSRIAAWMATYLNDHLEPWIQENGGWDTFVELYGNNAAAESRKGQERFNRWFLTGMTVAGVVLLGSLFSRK

[3] = target: T1, MCL-1 (172-321), biotinylated, with C-terminal biotinylation sequence (Homo sapiens (Human), UniProt Q07820 172-321); assay: SPR, MCL-1 immobilized, analyte series from 5 to 320 nM
T1 sequence (Q07820 other isoform, or with tags, fused parts or gaps): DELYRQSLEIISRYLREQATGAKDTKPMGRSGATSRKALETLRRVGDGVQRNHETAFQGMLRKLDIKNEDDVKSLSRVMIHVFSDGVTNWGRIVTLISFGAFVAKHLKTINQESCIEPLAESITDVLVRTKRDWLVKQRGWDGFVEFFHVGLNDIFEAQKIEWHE
Description: (§1) SPR data were collected on an 8 K device (GE Healthcare). A Series S Biotin CAPture kit (GE Healthcare) was used to immobilize biotinylated anti-apoptotic BCL-2 proteins, and all experiments were conducted in HBS-EP+buffer solution (10 mM HEPES, 150 mM NaCl, 3 mM EDTA, 0.005% Surfactant P20; GE Healthcare). Biotinylated anti-apoptotic BCL-2 proteins were immobilized on the CAP chip until the response units reached 100. Serially diluted analytes were injected at a flow rate of 30 μl/min. Analytes were used at 20 nM for single concentration experiments. Dissociation constants (KD) and kinetic parameters (Kₐ and Kd) were estimated using Biacore 8 K evaluation software (GE Healthcare).

[4] = target: T2, BCL-xL (1-44:85-209), biotinylated, with C-terminal biotinylation sequence (Homo sapiens (Human), UniProt Q07817 1-209, biotin on the C-terminal biotinylation sequence … (co-expressed BirA)); assay: SPR, BCL-xL immobilized, analyte series from 1.25 to 80 nM
T2 construct: Form immobilised on the CAP chip for SPR; Any purification tag from pJK hTx is not described
T2 sequence (Q07817 other isoform, or with tags, fused parts or gaps): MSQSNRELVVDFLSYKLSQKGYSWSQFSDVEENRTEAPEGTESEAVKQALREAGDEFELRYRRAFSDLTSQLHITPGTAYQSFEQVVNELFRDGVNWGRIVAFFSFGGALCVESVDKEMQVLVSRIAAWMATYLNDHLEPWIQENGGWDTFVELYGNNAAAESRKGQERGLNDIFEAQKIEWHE
Description: as §1

[5] = target: T3, BCL-B (1-177;C30S/C138S), biotinylated, with C-terminal biotinylation sequence (UniProt Q9HD36 1-177); assay: SPR, biotinylated BCL-B on CAP chip; target BCL-B
T3 construct: range 1-177
T3 sequence: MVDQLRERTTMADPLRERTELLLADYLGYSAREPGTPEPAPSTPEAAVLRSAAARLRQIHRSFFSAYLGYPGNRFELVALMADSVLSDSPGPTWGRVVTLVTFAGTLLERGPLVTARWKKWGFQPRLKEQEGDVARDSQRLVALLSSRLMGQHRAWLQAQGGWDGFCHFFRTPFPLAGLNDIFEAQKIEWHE
Description: as §1

[6] = target: T4, BFL-1 (1-151;C4S/C19S), biotinylated, with C-terminal biotinylation sequence (UniProt Q16548 1-151); assay: SPR, biotinylated BFL-1 on CAP chip; target BFL-1
T4 construct: range 1-151; also called BFL-1 (A1)
T4 sequence: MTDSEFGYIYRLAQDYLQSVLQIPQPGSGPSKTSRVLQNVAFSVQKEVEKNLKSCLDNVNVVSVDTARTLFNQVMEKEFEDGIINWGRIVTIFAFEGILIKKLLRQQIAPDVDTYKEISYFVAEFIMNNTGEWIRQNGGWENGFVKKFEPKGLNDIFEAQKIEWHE
Description: as §1

[7] = target: T1, MCL-1 (172-321), biotinylated, with …; assay: SPR, biotinylated MCL-1 on CAP chip
Description: as §1

[8] = target: BCL-2 (1-34:chimeric loop:92-203), biotinylated, with C-terminal biotinylation sequence (UniProt P10415 1-34; P10415 92-203); assay: SPR, biotinylated BCL-2 on CAP chip
Sequence of BCL-2 (1-34:chimeric loop:92-203), biotinylated, with C-terminal biotinylation sequence (P10415 other isoform, or with tags, fused parts or gaps mutant): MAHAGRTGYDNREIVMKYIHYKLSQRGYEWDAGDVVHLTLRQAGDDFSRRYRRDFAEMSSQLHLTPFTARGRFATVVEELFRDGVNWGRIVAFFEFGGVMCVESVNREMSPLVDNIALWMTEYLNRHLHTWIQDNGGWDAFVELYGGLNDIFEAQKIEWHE
Description: as §1

[9] = target: T1, MCL-1 (172-321), biotinylated, with …; assay: SPR, ratio of KD values
Description: as §1

[10] = target: T5, BCL-W (1-164), biotinylated, with C-terminal biotinylation sequence (UniProt Q92843 1-164); assay: SPR, biotinylated BCL-W on CAP chip; target BCL-W
T5 sequence: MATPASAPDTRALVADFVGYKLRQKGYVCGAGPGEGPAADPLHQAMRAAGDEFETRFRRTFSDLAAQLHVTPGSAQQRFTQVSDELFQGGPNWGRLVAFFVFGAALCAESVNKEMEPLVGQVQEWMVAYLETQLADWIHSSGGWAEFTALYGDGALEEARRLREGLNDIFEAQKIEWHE
Description: as §1

[11] = target: T6, MCL-1 (172-321) (Homo sapiens (Human), UniProt Q07820 172-321); assay: crystal structure
T6 sequence (Q07820 172-321): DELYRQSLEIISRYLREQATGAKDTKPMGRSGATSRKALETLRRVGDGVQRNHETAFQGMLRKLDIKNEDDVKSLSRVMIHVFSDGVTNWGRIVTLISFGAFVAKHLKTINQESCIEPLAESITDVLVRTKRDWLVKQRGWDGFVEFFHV
Description: Crystals were obtained by the hanging-drop vapor diffusion method at 20° C. […] The crystals were immersed briefly in a cryoprotectant solution. […] X-ray diffraction datasets were collected on beamline 5C at Pohang Accelerator Laboratory, South Korea. […] Then, automatic model building into the electron densities and structure refinement were performed using the PHENIX software suit. […] Iterative rounds of manual model building and refinement were carried out using the programs COOT and PHENIX. All structures were illustrated using the PYMOL software.

[12] = target: T2, BCL-xL (1-44:85-209), biotinylated, …; assay: SPR, ratio of KD values
Description: as §1

[13] = target: T2, BCL-xL (1-44:85-209), biotinylated, …; assay: SPR, biotinylated BCL-xL on CAP chip
Description: as §1

[14] = target: T2, BCL-xL (1-44:85-209), biotinylated, …; assay: SPR, different analyte concentrations, biotinylated BCL-xL on CAP chip
Description: as §1

[15] = target: T6, MCL-1 (172-321); assay: size-exclusion chromatography (Superdex 75 Increase 10/300 GL), qualitative binding assay
[16] = target: T1, MCL-1 (172-321), biotinylated, with …; assay: comparison of KD values (SPR)
[17] = target: T2, BCL-xL (1-44:85-209), biotinylated, …; assay: comparison of KD values (SPR)

B1: 4H_αBM_3_CTS, 3×FLAG-tagged, expressed in cancer cell lines by lentivirus (designed binder, not shown: small tags and cut ends)
chain: MDAKKVAKKAAIQAARRITELAQVLVELLKEALKLDLTQEMRKKLIERYAAAIIRAIGDINNAIYQAKQEAEKLKKAGLVDSDQLDALLRALDELQKVASKAANQLGRLFEEALKRLDKDNGGEEEKDRTAKWFEFEARAIELALRLAAIGDVFDLEKEWRKLKPRMVILRLLRYIVRLVWRMH
[1]
  cell viability (WST-1), A375 cells: 11%
  cell viability (WST-1), HCT-116 cells: 50%
  cell viability (WST-1), K562 cells: 33%
  cell viability (WST-1), MEWO cells: 33%
  cell viability (WST-1), SW620 cells: 27%
[2]
  cell viability (WST-1), A375 cells: 11%
  cell viability (WST-1), HCT-116 cells: 50%
  cell viability (WST-1), K562 cells: 33%
  cell viability (WST-1), MEWO cells: 33%
  cell viability (WST-1), SW620 cells: 27%

B2: 4H_αBM_2 (I143L/I54E/G58E) (designed binder)
chain: MDAKKVAKKAAIQAARRITELAQVLVELLKEALKLDLTQEMRKKLIERYAAAIERAIEDINNAIYQAKQEAEKLKKAGLVDSDQLDALLRALDELQKVASKAANQLGRLFEEALKRLDKDNGGEEEKDRTAKWFEFEARAIELALRLAAIGDVFDLEKEWRKLK
notes: also called 4H_αBM_3 (I54E/G58E)
[3]
  Kd: 113 nM
[4]
  Kd: 0.82 nM
[5]
  Kd: 146 nM
[6]
  Kd: 16.4 nM
[7]
  Kd: 133 nM
[8]
  Kd: 2.04 nM
[9]
  fold reduced affinity (against 4H_αBM_2 (I54E/G58E)): ~7 fold
[10]
  Kd: 1.59 nM

B3: 4H_αBM_2 (designed binder)
chain: B2 chain with E54I, E58G, L143I
[11]
  binding result: binds
[12]
  fold stronger binding than 4H_αBM_1: 40 fold
[13]
  Kd: 0.21 nM

B4: 4H_αBM_1 (designed binder)
chain: B2 chain with I12D, R16N, T19R, E54I, E58G, E142A, L143I, R146T
notes: also called D81
[14]
  Kd: 8.57 nM
[15]
  binding result: binds

B5: 4H_αBM_2 (I54E/G58E) (designed binder)
chain: B2 chain with L143I
notes: also called 4H_αBM_2 (154E/G58E)
[7]
  Kd: 19.2 nM

B6: 4H_αBM_3 (designed binder)
chain: B2 chain with E54I, E58G
notes: also called 4H_αBM_2 (I143L)
[16]
  fold higher binding affinity than human BIM BH3: > 8 fold
[17]
  fold higher binding affinity than human BIM BH3: > 8 fold
